Source: US12630600B2 (MEDIMMUNE LIMITED, priority 2022, dated 2026)
Starred links: 1 amine or outer side, 2 acyl side, 3 side chain; linkers in the order of their positions; H or OH if unused. Non-standard residues stand in square brackets, D forms with d. Groups on a side chain read outwards from the residue. No end group written: not given here. *: point of attachment. C20 diacid = O=C(O)CCCCCCCCCCCCCCCCCCC(=O)*; C18 diacid = O=C(O)CCCCCCCCCCCCCCCCC(=O)*; γGlu = O=C(O)[C@H](CCC(=O)[*:2])N[*:1]; αMeF = C[C@](N)(Cc1ccccc1)C(=O)O; AEEA = NCCOCCOCC(=O)O; Aib = CC(C)(N)C(=O)O

B1: Peptide 215 (peptide)
peptide: H[Aib]HGS[αMeF]TSDVSK[αMeF]LDSRAAK([AEEA-AEEA-γGlu-C20 diacid])D[αMeF]VQWIANT-NH2
modifications: N-terminus assumed
SMILES: CC[C@H](C)[C@H](NC(=O)[C@H](Cc1c[nH]c2ccccc12)NC(=O)[C@H](CCC(N)=O)NC(=O)[C@@H](NC(=O)[C@](C)(Cc1ccccc1)NC(=O)[C@H](CC(=O)O)NC(=O)[C@H](CCCCNC(=O)COCCOCCNC(=O)COCCOCCNC(=O)CC[C@H](NC(=O)CCCCCCCCCCCCCCCCCCC(=O)O)C(=O)O)NC(=O)[C@H](C)NC(=O)[C@H](C)NC(=O)[C@H](CCCNC(=N)N)NC(=O)[C@H](CO)NC(=O)[C@H](CC(=O)O)NC(=O)[C@H](CC(C)C)NC(=O)[C@](C)(Cc1ccccc1)NC(=O)[C@H](CCCCN)NC(=O)[C@H](CO)NC(=O)[C@@H](NC(=O)[C@H](CC(=O)O)NC(=O)[C@H](CO)NC(=O)[C@@H](NC(=O)[C@](C)(Cc1ccccc1)NC(=O)[C@H](CO)NC(=O)CNC(=O)[C@H](Cc1c[nH]cn1)NC(=O)C(C)(C)NC(=O)[C@@H](N)Cc1c[nH]cn1)[C@@H](C)O)C(C)C)C(C)C)C(=O)N[C@@H](C)C(=O)N[C@@H](CC(N)=O)C(=O)N[C@H](C(N)=O)[C@@H](C)O
B2: Peptide 221 (peptide)
peptide: H[Aib]HGS[αMeF]TSDVSK[αMeF]LDSR[Aib]AK([AEEA-AEEA-γGlu-γGlu-C20 diacid])DFVQ[Aib]IANT-NH2
modifications: N-terminus assumed
SMILES: CC[C@H](C)[C@H](NC(=O)C(C)(C)NC(=O)[C@H](CCC(N)=O)NC(=O)[C@@H](NC(=O)[C@H](Cc1ccccc1)NC(=O)[C@H](CC(=O)O)NC(=O)[C@H](CCCCNC(=O)COCCOCCNC(=O)COCCOCCNC(=O)CC[C@H](NC(=O)CC[C@H](NC(=O)CCCCCCCCCCCCCCCCCCC(=O)O)C(=O)O)C(=O)O)NC(=O)[C@H](C)NC(=O)C(C)(C)NC(=O)[C@H](CCCNC(=N)N)NC(=O)[C@H](CO)NC(=O)[C@H](CC(=O)O)NC(=O)[C@H](CC(C)C)NC(=O)[C@](C)(Cc1ccccc1)NC(=O)[C@H](CCCCN)NC(=O)[C@H](CO)NC(=O)[C@@H](NC(=O)[C@H](CC(=O)O)NC(=O)[C@H](CO)NC(=O)[C@@H](NC(=O)[C@](C)(Cc1ccccc1)NC(=O)[C@H](CO)NC(=O)CNC(=O)[C@H](Cc1c[nH]cn1)NC(=O)C(C)(C)NC(=O)[C@@H](N)Cc1c[nH]cn1)[C@@H](C)O)C(C)C)C(C)C)C(=O)N[C@@H](C)C(=O)N[C@@H](CC(N)=O)C(=O)N[C@H](C(N)=O)[C@@H](C)O
B3: Peptide 222 (peptide)
peptide: H[Aib]HGS[αMeF]TSDVSK[αMeF]LDSRAAKDFVQ[Aib]IANT-NH2
modifications: not fully specified (residue 20)
B4: Peptide 225 (peptide)
peptide: H[Aib]HGS[αMeF]TSDVSK[αMeF]LDSRAAK([AEEA-AEEA-γGlu-C18 diacid])D[αMeF]VQ[Aib]IANT-NH2
modifications: N-terminus assumed
SMILES: CC[C@H](C)[C@H](NC(=O)C(C)(C)NC(=O)[C@H](CCC(N)=O)NC(=O)[C@@H](NC(=O)[C@](C)(Cc1ccccc1)NC(=O)[C@H](CC(=O)O)NC(=O)[C@H](CCCCNC(=O)COCCOCCNC(=O)COCCOCCNC(=O)CC[C@H](NC(=O)CCCCCCCCCCCCCCCCC(=O)O)C(=O)O)NC(=O)[C@H](C)NC(=O)[C@H](C)NC(=O)[C@H](CCCNC(=N)N)NC(=O)[C@H](CO)NC(=O)[C@H](CC(=O)O)NC(=O)[C@H](CC(C)C)NC(=O)[C@](C)(Cc1ccccc1)NC(=O)[C@H](CCCCN)NC(=O)[C@H](CO)NC(=O)[C@@H](NC(=O)[C@H](CC(=O)O)NC(=O)[C@H](CO)NC(=O)[C@@H](NC(=O)[C@](C)(Cc1ccccc1)NC(=O)[C@H](CO)NC(=O)CNC(=O)[C@H](Cc1c[nH]cn1)NC(=O)C(C)(C)NC(=O)[C@@H](N)Cc1c[nH]cn1)[C@@H](C)O)C(C)C)C(C)C)C(=O)N[C@@H](C)C(=O)N[C@@H](CC(N)=O)C(=O)N[C@H](C(N)=O)[C@@H](C)O
B5: Peptide 227 (peptide)
peptide: H[Aib]HGS[αMeF]TSDVSK[αMeF]LDSRAAK([AEEA-AEEA-γGlu-C18 diacid])D[αMeF]VE[Aib]IANT-NH2
B6: Peptide 228 (peptide)
peptide: H[Aib]HGS[αMeF]TSDVSK[αMeF]LDSRAAKD[αMeF]IA[Aib]IANT-NH2
modifications: not fully specified (residue 20)
B7: Peptide 230 (peptide)
peptide: H[Aib]HGS[αMeF]TSDVSK[αMeF]LDSRAAKD[αMeF]VQ[Aib]IANT-NH2
modifications: not fully specified (residue 20)
B8: Peptide 232 (peptide)
peptide: H[Aib]HGS[αMeF]TSDVSK[αMeF]LDSRAAKD[αMeF]VQ[Aib]IANT-NH2
modifications: not fully specified (residue 20)
B9: Peptide 234 (peptide)
peptide: H[Aib]HGS[αMeF]TSDVSK[αMeF]LDSRAAK([AEEA-AEEA-γGlu-γGlu-C20 diacid])D[αMeF]VE[Aib]IANT-NH2
modifications: N-terminus assumed
SMILES: CC[C@H](C)[C@H](NC(=O)C(C)(C)NC(=O)[C@H](CCC(=O)O)NC(=O)[C@@H](NC(=O)[C@](C)(Cc1ccccc1)NC(=O)[C@H](CC(=O)O)NC(=O)[C@H](CCCCNC(=O)COCCOCCNC(=O)COCCOCCNC(=O)CC[C@H](NC(=O)CC[C@H](NC(=O)CCCCCCCCCCCCCCCCCCC(=O)O)C(=O)O)C(=O)O)NC(=O)[C@H](C)NC(=O)[C@H](C)NC(=O)[C@H](CCCNC(=N)N)NC(=O)[C@H](CO)NC(=O)[C@H](CC(=O)O)NC(=O)[C@H](CC(C)C)NC(=O)[C@](C)(Cc1ccccc1)NC(=O)[C@H](CCCCN)NC(=O)[C@H](CO)NC(=O)[C@@H](NC(=O)[C@H](CC(=O)O)NC(=O)[C@H](CO)NC(=O)[C@@H](NC(=O)[C@](C)(Cc1ccccc1)NC(=O)[C@H](CO)NC(=O)CNC(=O)[C@H](Cc1c[nH]cn1)NC(=O)C(C)(C)NC(=O)[C@@H](N)Cc1c[nH]cn1)[C@@H](C)O)C(C)C)C(C)C)C(=O)N[C@@H](C)C(=O)N[C@@H](CC(N)=O)C(=O)N[C@H](C(N)=O)[C@@H](C)O
B10: Peptide 244 (peptide)
peptide: H[Aib]HGS[αMeF]TSDVSK[αMeF]LDSRAAK([AEEA-AEEA-γGlu-γGlu-C20 diacid])D[αMeF]VQSIANT-NH2
modifications: N-terminus assumed
SMILES: CC[C@H](C)[C@H](NC(=O)[C@H](CO)NC(=O)[C@H](CCC(N)=O)NC(=O)[C@@H](NC(=O)[C@](C)(Cc1ccccc1)NC(=O)[C@H](CC(=O)O)NC(=O)[C@H](CCCCNC(=O)COCCOCCNC(=O)COCCOCCNC(=O)CC[C@H](NC(=O)CC[C@H](NC(=O)CCCCCCCCCCCCCCCCCCC(=O)O)C(=O)O)C(=O)O)NC(=O)[C@H](C)NC(=O)[C@H](C)NC(=O)[C@H](CCCNC(=N)N)NC(=O)[C@H](CO)NC(=O)[C@H](CC(=O)O)NC(=O)[C@H](CC(C)C)NC(=O)[C@](C)(Cc1ccccc1)NC(=O)[C@H](CCCCN)NC(=O)[C@H](CO)NC(=O)[C@@H](NC(=O)[C@H](CC(=O)O)NC(=O)[C@H](CO)NC(=O)[C@@H](NC(=O)[C@](C)(Cc1ccccc1)NC(=O)[C@H](CO)NC(=O)CNC(=O)[C@H](Cc1c[nH]cn1)NC(=O)C(C)(C)NC(=O)[C@@H](N)Cc1c[nH]cn1)[C@@H](C)O)C(C)C)C(C)C)C(=O)N[C@@H](C)C(=O)N[C@@H](CC(N)=O)C(=O)N[C@H](C(N)=O)[C@@H](C)O
B11: Peptide 246 (peptide)
peptide: H[Aib]HGS[αMeF]TSDVSK[αMeF]LDSRAAK([AEEA-AEEA-γGlu-γGlu-C20 diacid])D[αMeF]VESIANT-NH2
modifications: N-terminus assumed
SMILES: CC[C@H](C)[C@H](NC(=O)[C@H](CO)NC(=O)[C@H](CCC(=O)O)NC(=O)[C@@H](NC(=O)[C@](C)(Cc1ccccc1)NC(=O)[C@H](CC(=O)O)NC(=O)[C@H](CCCCNC(=O)COCCOCCNC(=O)COCCOCCNC(=O)CC[C@H](NC(=O)CC[C@H](NC(=O)CCCCCCCCCCCCCCCCCCC(=O)O)C(=O)O)C(=O)O)NC(=O)[C@H](C)NC(=O)[C@H](C)NC(=O)[C@H](CCCNC(=N)N)NC(=O)[C@H](CO)NC(=O)[C@H](CC(=O)O)NC(=O)[C@H](CC(C)C)NC(=O)[C@](C)(Cc1ccccc1)NC(=O)[C@H](CCCCN)NC(=O)[C@H](CO)NC(=O)[C@@H](NC(=O)[C@H](CC(=O)O)NC(=O)[C@H](CO)NC(=O)[C@@H](NC(=O)[C@](C)(Cc1ccccc1)NC(=O)[C@H](CO)NC(=O)CNC(=O)[C@H](Cc1c[nH]cn1)NC(=O)C(C)(C)NC(=O)[C@@H](N)Cc1c[nH]cn1)[C@@H](C)O)C(C)C)C(C)C)C(=O)N[C@@H](C)C(=O)N[C@@H](CC(N)=O)C(=O)N[C@H](C(N)=O)[C@@H](C)O
B12: Peptide 251 (peptide)
peptide: H[Aib]HGS[αMeF]TSDVSK[αMeF]LDSR[Aib]AK([AEEA-AEEA-γGlu-C18 diacid])DFVESIANT-NH2
B13: Peptide 253 (peptide)
peptide: H[Aib]HGS[αMeF]TSDVSK[αMeF]LDSR[Aib]AK([AEEA-γGlu-C18 diacid])DFVESIANT-NH2
B14: Peptide 254 (peptide)
peptide: H[Aib]HGS[αMeF]TSDVSK[αMeF]LDSR[Aib]AK([γGlu-C18 diacid])DFVESIANT-NH2
B15: Peptide 256 (peptide)
peptide: H[Aib]HGS[αMeF]TSDVSK[αMeF]LDSQAAK([AEEA-AEEA-γGlu-γGlu-C20 diacid])D[αMeF]VQ[Aib]IANT-NH2

target: human GLP-1 receptor (human, UniProt P43220); experiment: cell-based or functional assay

First: B1
Second: B2
The “hGLP-1R EC50 (pM)” value of the first is higher: 7620 pM for the first, 122 pM for the second.

Going from B3 to B4, the “hGLP-1R EC50 (pM)” value falls from 151 pM to 34.9 pM.

Compared with B5, B6 is higher in “hGLP-1R EC50 (pM)” value: 70.5 pM for the first, 200 pM for the second.

Compared with B7, B8 is lower in “hGLP-1R EC50 (pM)” value: 170 pM for the first, 110 pM for the second.

First: B9
Second: B10
The “hGLP-1R EC50 (pM)” value of the first is lower: 68 pM for the first, 143 pM for the second.

First: B11
Second: B12
The “hGLP-1R EC50 (pM)” value of the first is higher: 320 pM for the first, 79.8 pM for the second.

First: B13
Second: B14
The “hGLP-1R EC50 (pM)” value of the first is lower: 75.5 pM for the first, 102 pM for the second.

With B15 the “hGLP-1R EC50 (pM)” value was 346 pM.

target: human glucagon receptor (human, UniProt P47871); experiment: cell-based or functional assay

Going from B1 to B2, the “hGluc-R EC50 (pM)” value falls from 2610 pM to 123 pM.

Going from B3 to B4, the “hGluc-R EC50 (pM)” value falls from 244 pM to 145 pM.

Compared with B5, B6 is higher in “hGluc-R EC50 (pM)” value: 27.2 pM for the first, 177 pM for the second.

Going from B7 to B8, the “hGluc-R EC50 (pM)” value rises from 37.1 pM to 1020 pM.

First: B9
Second: B10
The “hGluc-R EC50 (pM)” value of the first is higher: 1290 pM for the first, 420 pM for the second.

Compared with B11, B12 is lower in “hGluc-R EC50 (pM)” value: 557 pM for the first, 248 pM for the second.

First: B13
Second: B14
The “hGluc-R EC50 (pM)” value of the first is lower: 53.1 pM for the first, 125 pM for the second.

In the case of B15, the “hGluc-R EC50 (pM)” value is reported as 1310 pM.
